Earlier results in US20190298804A1, “ACTIVATION OF THE ENDOGENOUS ILEAL BRAKE HORMONE PATHWAY FOR ORGAN REGENERATION AND RELATED COMPOSITIONS, METHODS OF TREATMENT, DIAGNOSTICS, AND REGULATORY SYSTEMS” (VOLANT HOLDINGS GMBH, priority 2013, published 2019).

System: MIN-6 cells
Conditions: immunoprecipitation and western blotting

B1: BTC: member of the epidermal growth factor family (protein, UniProt P35070 32-111, looked up)
Betacellulin: DGNSTRSPETNGLLCGDPEENCAATTTQSKRKGHFSRCPKQYKHYCIKGRCRFVVAEQTPSCVCDEGYIGARCERVDLFY
modifications: Betacellulin
notes: member of the epidermal growth factor family
In the case of B1, the “phosphorylation of EGF receptors” value is listed as “induced phosphorylation of only ErbB-1 and ErbB-2”.
